Experimental data taken from article PMC10248732.
Read-outs that look alike come from different tables or passages of the source.

Key:
[1] = target: T1, GST-OsLUX (Oryza sativa, UniProt Q94DH3 1-238); assay: EMSA
T1 sequence: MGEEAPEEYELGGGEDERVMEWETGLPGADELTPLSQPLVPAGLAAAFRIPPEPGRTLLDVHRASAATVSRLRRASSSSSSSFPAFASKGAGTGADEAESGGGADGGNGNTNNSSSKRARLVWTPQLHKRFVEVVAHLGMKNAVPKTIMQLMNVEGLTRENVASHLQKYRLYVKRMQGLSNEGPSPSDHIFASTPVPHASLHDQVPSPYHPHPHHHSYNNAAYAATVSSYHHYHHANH

[2] = target: T1, GST-OsLUX; assay: EMSA; remark: listed apart in the source

B1: Ghd7-P (LBS, 3 copies) (dsDNA)
DNA 1: CAGCACGAATCTTGAGCAGCACGAATCTTGAGCAGCACGAATCTTGAG
DNA 2: CTCAAGATTCGTGCTGCTCAAGATTCGTGCTGCTCAAGATTCGTGCTG
- binding result [1]: binds

B2: Hd1-P (S4 LBS, 3 copies) (dsDNA)
DNA 1: CGCTGGATTCGACTTGCGCTGGATTCGACTTGCGCTGGATTCGACTTG
DNA 2: CAAGTCGAATCCAGCGCAAGTCGAATCCAGCGCAAGTCGAATCCAGCG
- binding result [2]: binds
